Measured values published in US8728787B2, “Fungal laccases and uses thereof” (Academia Sinica, priority 2010, dated 2014).

Experiments:
[1] = Thermal denaturation by differential scanning calorimetry (DSC); format: physicochemical; details: 10 mM sodium phosphate buffer (pH 6.0)
Experimental: Thermal denaturation of laccase was determined by differential scanning calorimetry (DSC) using a Nano Differential Scanning calorimeter (N-DSC III) (TA Instruments, New Castle, Del.) at a heating rate of 1° C./min under a temperature from 30 to 95° C. and excess pressure of 3.0 atm. The protein concentration was 0.55 mg/ml in 10 mM sodium phosphate buffer (pH 6.0). Baseline corrections were performed and smoothed by subtracting a buffer thermogram. The data were then analyzed using the Launch NanoAnalyze Software (TA Instruments, New Castle, Del.), assuming a two-state unfolding model. See Pace et al., The Protein Structure: A Practical Approach; Creighton T. E., Ed.: IRL Press; Oxford U.K., pp. 311-330; 1989.

[2] = pH stability: residual activity after pre-incubation at various pH; format: physicochemical
Experimental: (§1) The effect of pH on the laccase activity was investigated at a pH range of 2.5-6.0. Four buffer systems were used in this study: 50 mM glycine-HCl buffer (pH 2.5), 50 mM citric acid buffer (pH 3.0-5.5), 50 mM sodium phosphate buffer (pH 6.0-8.0), and 50 mM glycine-NaOH buffer (pH 9.0-10). To determine the protein stability of laccase at a wide range of pH conditions, the enzyme (0.1 mg/mL in each reaction) was pre-incubated at pH 3.0-10 at 25° C. for 0-5 days and then the residual enzyme activity was determined.
(§2) The effect of pH on laccase activity was investigated at pH 2.0-6.0, using a glycine-HCl buffer (pH 2.0-2.5) or a citric acid buffer (pH 2.5-6.0). To determine protein stability in different pH conditions, the enzyme was pre-incubated at pH 2.5-4.5 at 25° C. for 0-2 h and the residual enzyme activity was determined by the standard enzymatic assay.

[3] = pH 3
Experimental: Lignin degradation reaction was carried out by mixing a crude laccase broth (containing 100 U enzyme) with 50 ml reaction buffer (50 mM citric acid solution; pH 3.0) containing 100 mg smashed rice straw materials. The mixture was incubated at 30-80° C. for 20-60 min. Sodium azide was added to the mixture at a final concentration of 1 mM to stop the enzymatic reaction. The processed rice straw was collected by filtration and dried at 60° C. The lignin contents in the rice straw before and after treatment were determined following the method described in kappa number of ISO 302:2004 (International Organization for Standardization).
(§3) The lignin degradation reaction and the dye decoloration reaction were carried out following the methods described in Example 1 above. […] See FIG. 9, pane A. The lignin degradation efficiencies were 22%-25% at 40-50° C. for 40 min and 32% at 40° C. for 60 min.

[4] = RBBR dye decoloration; details: 0.02% RBBR, 8 U enzyme, 20° C., 1 h, pH 3.0
Experimental: Dye decoloration reaction was performed by mixing a partially purified laccase broth (containing 8 U enzyme) with a 1 ml reaction buffer (50 mM citric acid solution; pH 3.0) containing 0.02% RBBR (Sigma). The mixture was incubated at 20° C. for 1 h. Dye decoloration was determined by monitoring the change in absorbance at 595 nm and the dye decoloration efficiency (%) was defined as the relative amount of dye reduced after the treatment.
as §3

[5] = Guaiacol oxidation (laccase kinetics, optimum temperature and pH); format: biochemical; details: guaiacol as substrate
Experimental: (§4) The effect of temperature on laccase activity was studied using the standard enzymatic activity assay described above under various reaction temperatures (i.e., 20-80° C.). For thermal stability study, the enzyme was pre-incubated in a 50 mM citric acid buffer (pH 3.0) at 50-80° C. for 0-180 min and the residual enzymatic activity was then determined.
as §1
(§5) Kinetic parameters Km and Vmax were determined as follows. […] The oxidation reactions of guaiacol and 2,6-DMP were monitored by determining OD436 values (ε=6,400 M^−1cm^−1) and OD468 values (ε=49,600 M^−1 cm^−1), respectively. The kinetic parameters were determined by nonlinear regression analysis (ENZFITTER software program, Elsevier-Biosoft, Cambridge, UK) using the Michaelis-Menten model.
(§6) To determine the effect of temperature on the enzyme activity, a standard enzymatic activity assay was performed under various temperatures (i.e., 30-90° C.). For thermal stability study, laccase was pre-incubated in a 50 mM citric acid buffer (pH 3.0) at 30-80° C. for 10-40 min and the residual enzymatic activity was then determined by the standard assay. See Example 1 above. Values of t1/2 were determined accordingly.
as §2
(§7) Kinetic parameters were determined following conventional methods. See also Example 1 above.

[6] = Laccase activity in culture media of recombinant P. pastoris; format: biochemical; details: expressed in P. pastoris X-33; 13-26 day (Lcc1-3) or 18-day (LccA) cultivation
Description: The EasySelect™ Pichia Expression System (Invitrogen) was used in this study for expression of Lcc1, Lcc2, and Lcc3 laccases. cDNA fragments coding for these three laccases were cloned into Pichia expression vector pPICZA or pPICZaB via EcoRI and NotI restriction sites. More specifically, the lcc1 gene coding for Lcc1 precursor (including a signal peptide sequence) was cloned into pPICA to generate expression plasmid pPICZA-lcc1 and the lcc2 and lcc3 genes coding for mature Lcc2 and Lcc3 were cloned into pPICZaB to obtain expression plasmids pPICZaB-lcc2 and pPICZaB-lcc3, respectively. The three expression plasmids were introduced into P. pastoris X-33 cells following the method described in Invitrogen's protocol. Positive transformants were cultured in BMMY (1% yeast extract, 2% peptone, 100 mM potassium phosphate, pH 6.0, 1.34% yeast nitrogen base, 0.00004% biotin, and 0.5% methanol) at 25° C., 200 rpm for 12-26 days. Methanol was added to the culture media daily to reach a final concentration of 0.5%. During the cultivation, 1 ml of the supernatant was collected at various time points. The laccase activity and cell density in the supernatant were determined following the method described above or routine procedures.
pPICZ-lccA was introduced into Pichia pastoris strain X-33 host cells (Invitrogen) and positive transformants were selected for LccA expression. Briefly, a positive transformant was cultured in BMMY medium containing 1% yeast extract, 2% peptone, 1.34% yeast nitrogen base, 0.00004% biotin, and 0.5% methanol at 25° C. and 200 rpm for 20 days. Methanol was daily added to reach a final concentration of 0.5%. Within the 20-day cultivation, 1 ml of the supernatant was collected; laccase activity and cell growth were determined.

[7] = 2,6-DMP oxidation (laccase kinetics, optimum temperature and pH); format: biochemical; details: 2,6-DMP as substrate
Experimental: as §4, §1, §5, §6, §2, §7

B1: Lcc3: laccase purified from Cerrena sp. WR1, GenBank accession no. GQ899203; SEQ ID NO:3 mature, 9 precursor (protein)
chain: AIGPVADLHITDANVSPDGFTRPAVLAGGTFPGPLITGKQGDNFQINVIDELTDATMLKSTSIHWHGIFQKGTNWADGPSFVNQCPITTGNSFLYDFSVPDQTGTYWYHSHLSTQYCDGLRGALVIYDDNDPHKDLYDVDDETTVITLADWYHTQARLITGVPVSDATLINGLGRYLNGPTDAPLAVITVDQGKRYRFRLVSISCDPNFVFSIDNHSMTVIEVDAVNSQPLVVDSIQIFAAQRYSFILNANQSVGNYWIRANPNLGNTGFTNGINSAILRYNGAPVAEPNTTQTASTNPLNEVNLHPLVPTPVPGTPQPGGVDVVQNLVLGFSGGKFTINGVAFSPPTVPVLLQILSGTTTAQDLLPTGSIIELPLGKTVELTLAAGVLGGPHPFHLHGHTFHVVRSAGQTTPNYVDPILRDTVNTGAAGDNVTIRFTTDNPGPWFLHCHIDWHLEAGFAVVFAEGLNQTNAANPTPDAWNNLCDLYNALPAGDQ
modifications: Cerrena sp
Question: Which “midpoint temperature (Tm)” value [1] does the source give for B1 here?
Answer: Its value is 73.95 °C.

Question: What about the “stability at an acidic environment” value ([2]; pH 3.0-5.0) of the same molecule?
Answer: The value was “less stable”.

Question: What about the activity maintained ([2]; pH 6-10, 63 hr incubation, 25° C.) of the same molecule?
Answer: Its activity maintained is “about 100%”.

Question: What about the “highest lignin degradation efficiency per 100 U” value [3] of the same molecule?
Answer: Its value is “around 22.9%”.

Question: What about the “decoloration efficiency against RBBR” value [4] of the same molecule?
Answer: The value was 70.1%.

Question: And the optimal temperature [5]?
Answer: The optimal temperature was 70 °C.

Question: And the “pH of maximal activity” value [5]?
Answer: Its value is 4.5.

Question: And the Optimum temperature ([5]; at pH 4.5)?
Answer: The Optimum temperature was 70 (at pH 4.5) ° C.

Question: What about the Specific activity ([5]; optimum temperature and pH) of the same molecule?
Answer: The Specific activity was 189.7 U/mg.

Question: What about the “laccase activity in culture media” value [6] of the same molecule?
Answer: The value was roughly 3700 U/L.

Question: What about the optimal temperature [7] of the same molecule?
Answer: The optimal temperature was 70 °C.

Question: What about the “pH of maximal activity” value [7] of the same molecule?
Answer: The value was 3.5.

Question: And the Optimum temperature ([7]; at pH 3.5)?
Answer: Its Optimum temperature is 70 (at pH 3.5) ° C.

Question: And the Specific activity ([7]; optimum temperature and pH)?
Answer: The Specific activity was 118.3 U/mg.
